The data set is described as follows: yeast display, Sf9 membrane polyspecificity reagent, FACS + sequencing; frameworks hold sequencing errors. A digest of the protocol:
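Synthetic nanobody libraries on Saccharomyces cerevisiae BJ5465 were galactose-induced for 36–48 hours, stained 1 hour at 4 °C with 10% biotinylated, detergent-solubilized Sf9 membrane reagent and enriched on streptavidin microbeads. FACS then separated cells into low and high (top ~1%) gates by anti-HA (expression) and streptavidin (reagent binding) fluorescence. Genes were colony-PCR amplified, MiSeq 2 × 250 sequenced and CDR-length filtered. A clone's polyreactivity label is that of its gate of origin.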
Take “QVQIVESGGGVVQAGGSLRLSCAASGLIFPAYTMGWYRQAPGKERELVAAISRSGGSTYYADSVKGRFTISRDNAKNTVSLQMNSLNPEDTAVYYCAAQGYFVDRAGRYYRGDYWGQGTQVTVSS”: the “polyreactivity (PSR sort gate)” value is “high polyreactivity”.
Take “QVQIVESVGGLVQAGGSLRLSCAASGRTFPYYAKGRYRQAPGKEREMVATISTADSTYYADSVKGRFTISRDNAKNTVYLQMNRLITEATEVYYCAKDRYTYWSVHAFRRLDYWGQGTQLTVSS”: the “polyreactivity (PSR sort gate)” value is “low polyreactivity”.
Turning to “QVQLADSGGGLVQAGGSLRLICAASGSIIRNKAMGWYRQAPGKERELVAAITSTGTGTYYADSVKGRFTISRDYAKNTVYLQMNRVKPEDPAVYYCAVDDEFEFGYWGQGTQVTVSS”, the “polyreactivity (PSR sort gate)” value is “low polyreactivity”.
Then “QVQLAESGRGLVQAGGSLRLSCADSGIIYYFYAMGWYRQAPGKETEFVAAISGTGGRTYYADSVKGRFTISRDNAKNTVYLQMNSLKPEDTAVYYCNADDTPVPSIRFDYWGQGTQVTVSS”, with “low polyreactivity”.
With “QVQLAETGGGLVQAGGSLRLSCAASGSTFSVYAMGWYRQSPGKERELVATIPRGGSTYADSVKGRLTISRDNAKNTVYLQMNSLKPEDTAVYYCAADAYVSSQPMDYWGQGTQVTVSS”, the “polyreactivity (PSR sort gate)” value is recorded as “high polyreactivity”.
Then “QVQLEDSGGGLVQAGGSLRLSCAASGFTFYSNAMGWYRQAPGKERELVAAITRGGGSTYYADSVKGRFTISRDNAKNTVYLQMNSLKPEDTAVYYCAAEMFAPYRSTYDYWGQGTQVTVSS”, with “low polyreactivity”.
In the case of “QVQLEEAGGGLVQAGGSLSLSCAASGSILKVYAMGWSRQAPGQERELVAGNTRAGGSTNDADSVKGRFTISRDYAKNTVLLQMNSLKPEDTPVYYCAGRLKCYRRRDYWGQGTQVSVSS” it was “high polyreactivity”; in that of “QVQLEESAGGLVQAGGSLRLSCAASGRTFRRYAMGWYRPAPGKERELVAVISSGGRTNYADSVKGRFTISRDNAKNTVYLQLNSLKPEDTAVYYCNAGPLYSGVYSGYFWGQGTQVTVSS”, “high polyreactivity”.
Regarding “QVQLEESCGGLVQAGGSLRLSCAASGSTFTIYAMGWYRQAPGKERELVAVISSSGGSTYYADSVKGRFTISRDNAKNTVYLQMNSLKPEDTAVYYCAADTRYFGGYLTLYYWGQGTQVTVSS”, the “polyreactivity (PSR sort gate)” value is “low polyreactivity”.
Then “QVQLEESGAGLVQAGCSLRLSCAASGSTLFNNAMGWYRQAPGKERELVAAITFSGASTYYADSVKGRFTISRDNAKNTVYLQMNSLKPEDTAVYYCGADPSFNYIPVYYFDYDYWGQATQVTVSS”, with “low polyreactivity”.
For “QVQLEESGAGLVQAGGSLRLCCAASGNTFSSNAMGLYTQAPGKEMELVAGITKSGGRTYYADSVKGRFTISRDNAQYTVYLHMNSLKPEDSAVFYCNRRAGPFSIQYYYWGQVTQVTVSS”, the “polyreactivity (PSR sort gate)” value was “high polyreactivity”.
As to “QVQLEESGAGLVQAGGSLRLSCAASGITFYYNDMGWYRQAPGKEREMVASISGDGGSTYYADSVKGRFTISRDNAKNTVYLQMNSLKPEDTAVFYCAASAGYYEVLYDYWGQGTQVTVSS”, the “polyreactivity (PSR sort gate)” value is “low polyreactivity”.
In the case of “QVQLEESGGALVQAGGSLRISCAASGSTFYYNAMGWYRQAPGKERELVAVITLNGGRTSYADSVKGRFTISRDNAKNTVYLQMNSLKPEDSAVYYCAADRYRGYGYWGQGTQVTVSS” it was “low polyreactivity”; in that of “QVQLEESGGGIVQAGGSLRLSCAASGRTFVTNAMGWYRKAPGKERELVATINWSGGRTHYADSVKGRFTISRDNAKNTVYLQMNSLKPEDTAVYYCAKASSRRYWTIRDGDYWGQGTQVSVSS”, “low polyreactivity”; in that of “QVQLEESGGGIVQAGGSLRLSCDASGRIFVQYAIGCYRQEPGKEMELVAAISGSGGRTYYADSVKGSFTISRDTAKNTVYLQMNSLKPEDTAVYYCAARYTTGLSFWKPYYYWGQGTQVTVSS”, “high polyreactivity”.
Then “QVQLEESGGGLDQAGGSLRLSCAASAIIFALYARGWYSQARGKHRELVATITYSGGSTNYADSLKGRYTISRDNAKNPVYLLMHSLKPEDTAVYYCAAASVPWGGYYSGQGTQVTVSS”, with “low polyreactivity”; and “QVQLEESGGGLLQAGGSHSLSCAASGSTFYKYGMVWYRQAPGKEREFVAAISGSGDSTYYADSVKGRFTISRDNAKNTVYLHMNRLKPEDTAVYYCNAGPWWYLHEYDYWGQGTQVNVSS”, with “low polyreactivity”; and “QVQLEESGGGLVHAGGILRLSCAASGYTFYYNAMGWYRQAPGKERELVAAISRSRDTTYYADSVKGRFTISRDNAKYTVYLQMYSLKPEDTEVYYCNAVVQVLADFQKYDYWGQGSQVTVSS”, with “low polyreactivity”.
Take “QVQLEESGGGLVHAGGSLRLSSAASGYTFKYYALACYRQAPGKERELVAAISARGGSTYYADSVKGRFTISRDNAKNTVYLQMNSVKPEDTAVYFCAARSGYGPYRMDYWGQGTQVTVSS”: the “polyreactivity (PSR sort gate)” value is given as “high polyreactivity”.
With “QVQLEESGGGLVQAGCSLRLTCAASGSTFYSYPMGWSRQAPGKERELVAAITVSGTSTYYADSVKGRFTISRDNAKNTVYLQMYSVKPEDTAVYYCAADRRTDGHDYWGQGTQVTVSS”, the “polyreactivity (PSR sort gate)” value is “high polyreactivity”.
Turning to “QVQLEESGGGLVQAGGRIRLSCAASGRIFHGYAMGWYRQAPGKERELVAAISWRGDSTYYADSVKGRFTNSRDNAKNTVYLQMNSLKPEDTAVYYCNDLGENYQFNYWGLGTQVTVSS”, the “polyreactivity (PSR sort gate)” value is “low polyreactivity”.
Then “QVQLEESGGGLVQAGGRLRISCAASGRTFLCYAMGWSRQAPGKERELLAAISKSGGSTYYADSVKGRFTISRDNAKNTVYLQMNSLKPQDTAVYYCAVEVDVYTFSEFYYWGQGTQVTVSS”, with “high polyreactivity”; and “QVQLEESGGGLVQAGGRLRLSCAASGRTITRNAMGWYRQAPGKERELVAAISSRGGSTSYADSVKGRFTISRDNAKNTFYLQMNSLKPEDTAVYYCNKKTAASDYDYWGQGTQVTVSS”, with “high polyreactivity”; and “QVQLEESGGGLVQAGGRLRLSCAASGSILTAYAMGWYRQAPGKERELVAASNFSGDNTYYADSVKGRFTISRDNAKNTVYLQMNSLKPQDTALYYCNADGRYAYVWYDYWGQGTQVTVSS”, with “low polyreactivity”.
In the case of “QVQLEESGGGLVQAGGRLRLSCSASGFICGSNAMGWYRQAPGKERELVAAISARGGSTYYADSVKGRFTISRDNAKNPVYLQMNSLKPEDTAVYYCNTGTSGRFLSFGNFDYWGQGTQVTVSS” it was “high polyreactivity”; in that of “QVQLEESGGGLVQAGGRLRLTCAASGFIFKLYAMGWYRQAPGKERELVAAISGNGGRTYYADSVKGRFTISRDNAKNTVYLQMNSLKPEDTAVDYCAARYVGVQRYYEFDYWGQGTQVTVSS”, “high polyreactivity”.
Turning to “QVQLEESGGGLVQAGGSHRLSCAASGRTFGAYAMGWYLQAPGKEREVVAAITYRGASTYYADSVKGRFTISRDNAMYTVYLQMNSLITEDTAVYSCAAEGSIKYFVGYNWGYNYWGQGSQVTVSS”, the “polyreactivity (PSR sort gate)” value is “low polyreactivity”.
For “QVQLEESGGGLVQAGGSIRLSCAASGSIFYKYVMGCYRQAPGKERELVAAISRGGGSTYYADSVKGRFTISRDNSKNTVYLQMNSLKPEDTAVYYCNAVVRPRYGHGFDHWGQGTQVTVSS”, the “polyreactivity (PSR sort gate)” value was “high polyreactivity”.
Turning to “QVQLEESGGGLVQAGGSLRISCAAAGSTFRSNAMGWYRPAPRKERELVAAINSGGSTYYADSVKGRFTISRDNAKNTVYLQMNSLKPEDTAVYYCAARYYTPFGTYRQNIRMYYWGQGTQVTVSS”, the “polyreactivity (PSR sort gate)” value is listed as “high polyreactivity”.
For the sequence “QVQLEESGGGLVQAGGSLRISCAASGFIYRDYDMGWYRQAPGKERELVAAISLSGGSTYYADSVKGRFTISRDNAKNTVYLQMNSLKPEDTAVYYCAAVSAYEGNYWGQGTQVTVSS”, the “polyreactivity (PSR sort gate)” value is given as “high polyreactivity”.
Then “QVQLEESGGGLVQAGGSLRLCCAASGSTFWAYVMGWYRQAPGKEMELVAAISKSGVRTHYADSVKGRFTISRDNAKNTVYLQMNSRKPEDTAVYYSAAGGVGNLDDYWGQGTQVTVSS”, with “high polyreactivity”; and “QVQLEESGGGLVQAGGSLRLICAASAMGRYRQAPGKERELVAVINSTGGSTYYADSVKGRFTISRDNAKNTVYLQMYSLKPDDTAVYYCARVTRRGPGYTTLYCRYDYWGQGTQVTVSS”, with “low polyreactivity”; and “QVQLEESGGGLVQAGGSLRLICAASGIFFIYAMGWYRQARGKERELVADIDSGGPTYYADSVKGRFTISRDNAKNTVYLQMNRLQPEDTAVYYCAFDYSNVDLYSLLFYESDYWGQGTQVTVSS”, with “low polyreactivity”.
In the case of “QVQLEESGGGLVQAGGSLRLICAASGIIFLFYALGWYRQAPGKERELVASITWSGGSTYYADSVKGRFTISRDNAKNTVYLQMNSLKPEDTAVYYCAASVKIISYLVHSEFLGGELDYWGQGTHVTVSS” it was “low polyreactivity”.
As for “QVQLEESGGGLVQAGGSLRLICAASGIIFRLNAMGWYRQATGQDRELVAAIRRRGGSTYYADSVKGRFTISRDNAKNTVYLQMNSLKPEDTAVYYCNARYLRMRYPYTDEYNYWGQGTQVTVSS”, the “polyreactivity (PSR sort gate)” value is recorded as “low polyreactivity”.
In the case of “QVQLEESGGGLVQAGGSLRLICAASGSTFGDNAMGWSRQAPGKEGEFVAGISTNGGSTYYADSVKGRFTISRDNAKNTFYLQMNSLKPEDIAVYSCAAVNYYDQYGDYYWGQGTQVTVSS” it was “low polyreactivity”.
Then “QVQLEESGGGLVQAGGSLRLICAASGSTFIYNAMGWYRQAPGKERELVAAISARTGNTYYADSVKGRFTISRDNAKNTVYLQMNSLKPEDTAVYYCARRGFPRGGGPSRYYWYDYWGQGTQVTVSS”, with “high polyreactivity”; and “QVQLEESGGGLVQAGGSLRLSCAAAGLTFDVYAMGWYRPAPGNEMELVAAISSIGGSTYYADSVKGRFTISRDNAKNNVYLQMYSLKPEDTAVYYCSAAISLYSYDYWGQGTQVTVSS”, with “low polyreactivity”; and “QVQLEESGGGLVQAGGSLRLSCAASGFIFLDYAMGWYRQAPGKERELVAAISSRGARTYYADSVKGRFTISRDNAKNTVYLQMNSLKPEDTAVYYCAARGPLDRYGYWGQGTQVTVSS”, with “high polyreactivity”.
Regarding “QVQLEESGGGLVQAGGSLRLSCAASGFIFSSNAKGWYRQAPGKERELVAAISSSGGRTYYADSVKGRFTISRDNAKNPVYLQMNSLIPEYTAVYYCNADPRSLGSANDWGQGTQVTVSS”, the “polyreactivity (PSR sort gate)” value is recorded as “high polyreactivity”.
With “QVQLEESGGGLVQAGGSLRLSCAASGFIFSWYAMGWYRQAPGKERELVARISSSGGNTYYADSVKGRFTISRDNAKNTVYLQMNSLKPEDTAVYYCAATRYSLSGYGYWGQGTQVTVSS”, the “polyreactivity (PSR sort gate)” value was “high polyreactivity”.

The values above are taken from the nanobody polyreactivity screen of Harvey et al. (2022).
